In patent US20100261777, “Inhibiton of metallo-beta-lactamase by double-stranded dna” (published 2010):

Legend:
[1] = biological target: T1, metallo-beta-lactamase (class B) 5/B/6 (Bacillus cereus) (UniProt P14488); assay: inhibition; conditions: for IC50: cephalosporin C 4 mM; for IC50 / Ki: MOPS pH 7.0, 30 C; for Ki: noncompetitive
T1 sequence: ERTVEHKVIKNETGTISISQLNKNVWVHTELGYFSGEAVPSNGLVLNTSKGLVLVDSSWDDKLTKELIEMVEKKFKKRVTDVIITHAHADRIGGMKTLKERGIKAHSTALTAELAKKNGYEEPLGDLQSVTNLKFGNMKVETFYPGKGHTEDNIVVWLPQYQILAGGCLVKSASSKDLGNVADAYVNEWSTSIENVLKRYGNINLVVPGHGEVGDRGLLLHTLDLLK

carboxypeptidase A = biological target: T2, carboxypeptidase A (Bos taurus, UniProt P00730 P00730:111-419); assay: inhibition; 10% LiCl, 30 C, hippuryl-L-phenylalanine 1 mM; conditions: tags: bovine, zinc-dependent
T2 sequence: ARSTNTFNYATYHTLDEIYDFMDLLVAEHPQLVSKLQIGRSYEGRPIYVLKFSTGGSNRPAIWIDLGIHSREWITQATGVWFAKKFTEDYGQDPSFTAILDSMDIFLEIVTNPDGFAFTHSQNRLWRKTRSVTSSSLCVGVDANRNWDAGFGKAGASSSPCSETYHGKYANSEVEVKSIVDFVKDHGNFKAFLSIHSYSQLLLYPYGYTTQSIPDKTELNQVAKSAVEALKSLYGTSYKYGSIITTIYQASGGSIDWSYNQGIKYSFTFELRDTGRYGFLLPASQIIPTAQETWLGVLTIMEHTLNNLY
Description: Bovine Carboxypeptidase A Assay. The assay used for the bovine carboxypeptidase A is based on the method developed by Folk and Schirmer (1963). The rate of hydrolysis of hippuryl-L-phenylalanine is determined by monitoring the increase in absorbance at 254 nm (25° C., pH=7.5). The enzyme was dissolved in 10% lithium chloride to a concentration of 1-3 units per mL. Hippuryl-L-phenylalanine (1 mM) was dissolved in 0.05 M Tris HCl, pH=7.5 with 0.5 M sodium chloride. In a 1 cm cuvette, 1.0 mL of substrate was added and incubated in the spectraphotometer at 25° C. for 3-4 minutes to reach temperature equilibrium and establish a blank rate. Fifty μL of diluted enzyme was preincubated for 15 minutes at 25° C. with or without the inhibitor and was then added to record the increase in absorbance at 254 nm.
At 25 times the IC₅₀ value (275 nM) for the metallo-β-lactamase no inhibition of the against B. cereus 569/H/9 β-lactamase I was detected (data not shown) Additionally a bovine carboxypeptidase A (Zn²⁺dependent enzyme) assay was performed to test for Zn²⁺ specificity. […] The enzyme was incubated in the buffer (10% LiC1) for 15 minutes at 30° C. The concentration of the substrate (Hippuryl-L-phenylalanine) is 1 mM.

[2] = biological target: T3, metallo-beta-lactamase (class B) 5/B/6 (Bacillus cereus, UniProt P14488 P14488:30-256); assay: inhibition; single strand control; conditions: tags: strain 5/B/6; desalted enzyme used for SELEX
T3 sequence: T1 sequence

Molecule: ATGATCCGGTGCTGT (double strand) [ds 15-mer]
- IC50 [1]: 21 nM
- Ki ([1]; KI' 76.5 nM): 103 nM

Molecule: ATGATCCGGTGCTGTATGTTCCTACATGA (double strand) [ds 29-mer]
- IC50 ([1]; no added Zn2+): 14 nM
- Ki ([1]; KI' 9.1 nM, no added Zn2+): 11 nM

Molecule: ATGTTCCTACATGA (double strand) [ds 14-mer]
- IC50 [1]: 11 nM
- Ki ([1]; KI' 13 nM): 13 nM

Molecule: CGCGAGCTCCGCGCGNNNNNNNNNNNNNNNNNNNNNNNNNNNNNNCGCGCGCATATGGCGC (double strand) [round 8 SELEX pool (30 nt random insert)]
- activity ([1]; preliminary, pool after round 8, DNA quantitation approximate): 25 % inhibition

B1: ds 14-mer (dsDNA)
DNA 1: ATGTTCCTACATGA
DNA 2: TCATGTAGGAACAT
- IC50 (carboxypeptidase A): 100 nM

Molecule: ACAGCACCGGATCAT (ssDNA) [ss 15-mer complementary strand]
- IC50 [2]: 750 nM

Molecule: ATGATCCGGTGCTGT (ssDNA) [ss 15-mer top strand]
- IC50 [2]: 150 nM
